Reference: the supplement of paper PMC10567573
± gives the standard deviation.

Test: protein stability index of a GFP-peptide fusion (GPS, HEK-293T) (PSI 1-6); higher = more stable
[1] = treatment: DMSO, c terminus: a fixed tail appended
[2] = treatment: MLN4924 1 uM, 8 h, c terminus: a fixed tail appended
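Note: 24-mer peptide tiles fused after GFP, lentivirally expressed, FACS-sorted into six equal bins by GFP/DsRed ratio, decoded by Illumina sequencing, PSI is the read-weighted mean bin number.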

Sequence | protein stability index [1] | protein stability index [2] | protein stability index (treatment: DMSO, c terminus: native) | protein stability index (treatment: MLN4924 1 uM, 8 h, c terminus: native)
WMWLSCSSFFQQFFHCYCPVGFGR [CRY1] | 2.42 ± 0.2 | 2.4 ± 0.25 | – | –
KMIMDTAGNDPYCFVEFHEHRHAA [TIA1] | 3.28 ± 0.17 | 3.26 ± 0.29 | – | –
IQYEMEYTEGISQRMRVPEKLKVA [MFF] | 2.98 ± 0.28 | 3.08 ± 0.64 | – | –
TWTKHAEGGIFTSPNYPSKYPPDR [NETO1] | 3.94 ± 0.19 | 3.85 ± 0.065 | – | –
FVKYLIRPQPWLEKEIEEATKKLG [FUT8] | 2.31 ± 0.29 | 2.47 ± 0.17 | – | –
LTRLRTASGHEPGGSAVCASRVKL [PLEKHN1] | 3.63 ± 0.17 | 3.61 ± 0.28 | – | –
AFPKMALQAKQDGKKDVSHSSPVD [LCOR] | 5.26 ± 0.14 | 5.16 ± 0.16 | – | –
KPQAPQKLDPTLSSCFFIESCGAQ | 3.35 ± 0.28 | 3.15 ± 0.21 | – | –
LQSELAGVADFSATYLRCQLLLIK [INTS4] | 2.79 ± 0.46 | 2.57 ± 0.11 | – | –
LTMNSEDERRDAEERASLAGNRNS [KCNK9] | 5.56 ± 0.082 | 5.5 ± 0.22 | – | –
RNSGPVVEKLKQMQEFFGLKVTGK [MMP1] | 3.16 ± 0.079 | 3.14 ± 0.39 | – | –
DDPSLLKEAKTKYPNYEFISDNSI [FUT8] | 3.58 ± 0.36 | 4.04 ± 0.53 | – | –
PSSSGHLADSDTLSSAEENEPSQA [C18orf25] | 5.56 ± 0.22 | 5.52 ± 0.11 | – | –
ELSRSRKLYGQRERVWALAQEKAA [FCHSD1] | 3.04 ± 0.33 | 3.47 ± 0.22 | – | –
EVEGTKPSATEMIWAVLAAFNKS [GOLPH3L] | – | – | 2.4 ± 0.18 | 2.4 ± 0.33
NQAGYFMLPTVITDIKDESCCMTE [ALDH8A1] | 3.5 ± 0.13 | 3.71 ± 0.43 | – | –
QGASESQAPGEENLLGEAAGGQDM [HDAC6] | 5.54 ± 0.22 | 5.45 ± 0.2 | – | –
AVEWARNIPFFPDLQITDQVALLR [NR2F2] | 2.64 ± 0.2 | 2.79 ± 0.22 | – | –
ITVGLVFLCLQYRLRGKLRAEIEN [MOG] | 3.18 ± 0.42 | 3.29 ± 0.33 | – | –
AVQGLNLRSPNNFLSYYRLTRFLS [CCND1] | 2.3 ± 0.18 | 2.36 ± 0.27 | – | –
SVHVPGPHAMTIQELVDYVNARQK [PTPN9] | 3.49 ± 0.34 | 3.47 ± 0.28 | – | –
IRNEQFAIRRFQSMPVRLLGHSPV [CDC25B] | 2.71 ± 0.4 | 2.71 ± 0.21 | – | –

Sequence | protein stability index [1] | protein stability index [2] | protein stability index (treatment: DMSO, c terminus: native) | protein stability index (treatment: MLN4924 1 uM, 8 h, c terminus: native)
QSSQRMRQNLKLLVEETSCQQNMI [CEP70] | 3.65 ± 0.16 | 3.66 ± 0.16 | – | –
CLLICAEMYQVSRLQHICELFIIT [RHOBTB3] | 3.06 ± 0.38 | 3 ± 0.27 | – | –
VYSLEPRLCGGKGGFGSMLRALGA [SDE2] | 2.24 ± 0.45 | 2.1 ± 0.081 | – | –
KLWDPVDGSVVRDFEHRPKAPVVE [WDR88] | 4.08 ± 0.23 | 4.23 ± 0.2 | – | –
KAEECDTITLNCPRNSDMKNQGEE [EDARADD] | 5.62 ± 0.32 | 5.51 ± 0.31 | – | –
LGDALAGPPRAPGRSGWPAGGAPG [HES6] | 3.88 ± 0.23 | 3.94 ± 0.44 | – | –
SPTSGKFRRGSGSACSLLCCCGRD [MCOLN1] | 3.27 ± 0.15 | 3.56 ± 0.41 | – | –
ALRKIIKTLAVKNEEIQSFIYSLK [FSD1] | 2.87 ± 0.45 | 2.89 ± 0.42 | – | –
SRPSAPFTEASMMMSLTKLADKEL [ESR2] | 3.97 ± 0.4 | 3.97 ± 0.068 | – | –
FWSVMFFLMLINLGLGSMIGTMAG [SLC6A17] | 3.2 ± 0.55 | 3.49 ± 0.57 | – | –
DDSCLNNDIPHSIPLEQGSSCNGP [FAN1] | 5.17 ± 0.19 | 5.09 ± 0.1 | – | –
KSNNRLKSLSIQYLELDRLVWRNS [FBXO39] | 2.38 ± 0.18 | 2.4 ± 0.3 | – | –
GYKEFFMKCQSYCEPPSYRPMHHE [CDC25A] | 2.49 ± 0.15 | 2.42 ± 0.34 | – | –
KLKNTVTIQQEKLLAEKEEKLQKE [SASS6] | 5.1 ± 0.46 | 5.2 ± 0.31 | – | –
TPYKPPAGRAAAPELSYRVCVGSD [MYORG] | 3.94 ± 0.24 | 4.13 ± 0.27 | – | –
KSQTACLPFVLAAAVSRKKKRRMG [EHMT1] | 3.38 ± 0.31 | 3.61 ± 0.3 | – | –
AAEGEGSPPAVAAVAGPPAAAEVG [ANKRD17] | 5.63 ± 0.23 | 5.21 ± 0.43 | – | –
RNERSIQEKLQVLMAEGLLPAVKV [SMG5] | 2.69 ± 0.26 | 2.6 ± 0.22 | – | –
LDKKVEKVTISNRLVSSPCCIVTS [HSP90AB1] | 3.28 ± 0.34 | 2.98 ± 0.27 | – | –
RLRGLLRVLRGRPGAGSRRRGRMA [FBXO33] | 2.6 ± 0.61 | 3.14 ± 0.69 | – | –
NTKAEMEMSLAEELNHGRQGENQE [FATE1] | 5.53 ± 0.16 | 5.64 ± 0.12 | – | –
DLERQNQEYQVLLDVRARLECEIN [KRT33B] | 3.39 ± 0.29 | 3.58 ± 0.22 | – | –

Sequence | protein stability index [1] | protein stability index [2] | protein stability index (treatment: DMSO, c terminus: native) | protein stability index (treatment: MLN4924 1 uM, 8 h, c terminus: native)
LELKFVSSLRRQFEFSVDSFQIVL [TENT5D] | 3.41 ± 0.5 | 2.91 ± 0.23 | – | –
QLQHDFPRALIFSTDDFFFREDGA [N4BP2L1] | 3.09 ± 0.24 | 3.08 ± 0.47 | – | –
GELVLATAISSFTRHVFTCGRRGI [TLE6] | 2.37 ± 0.31 | 2.52 ± 0.52 | – | –
PYFRAMFTGELAESRQTEVVIRDI [KLHL20] | 2.77 ± 0.25 | 3.09 ± 0.19 | – | –
GMSTIRPNPGFSMLDFLSERPWIK [APMAP] | 2.62 ± 0.34 | 2.76 ± 0.24 | – | –
GRIACANVLSDLYAMGITECDNML [SEPHS2] | 2.4 ± 0.41 | 2.43 ± 0.32 | – | –
LIKAGADIELGCSTPLMEAAQEGH [ANKRD17] | 4.21 ± 0.57 | 4.14 ± 0.35 | – | –
FFVPLSYLLMVTVILLPYVSKVTG [TMEM175] | 3.33 ± 0.26 | 3.11 ± 0.31 | – | –
LGFGPTYVVLAYTLPPASRFIIIF [SOAT1] | 3.09 ± 0.14 | 3.03 ± 0.77 | – | –
TMGLAGRARVKEKFSPEAFTEQLY [ALG2] | 2.94 ± 0.26 | 2.96 ± 0.13 | – | –
RAALKLEPSNKTIHAELSKLVKKH [FKBP8] | 3.71 ± 0.19 | 3.85 ± 0.12 | – | –
KDPAYFYGYVYFRQVRDKTLKRGY [DENND6A] | 2.44 ± 0.31 | 1.96 ± 0.29 | – | –
GLHVQHMGTSHGITRPSPRRSNSP [CCDC6] | 4.51 ± 0.17 | 4.57 ± 0.082 | – | –
HHLDEDEERERIERVRRIHIKRPD [KCTD10] | 5.09 ± 0.34 | 5.19 ± 0.076 | – | –
MLRWLIGGGREPQGLAEKSPLQTI [WDR41] | 2.33 ± 0.21 | 2.33 ± 0.23 | – | –
IAVKTLGIGKNVICDRTATPLDAF [GFOD1] | 2.43 ± 0.14 | 2.53 ± 0.17 | – | –
MASCAEPSEPSAPLPAGVPPLEDF [FKBP8] | 4.97 ± 0.28 | 5.05 ± 0.14 | – | –
FRVFHCTQYVRHSSDPFYTPEPDT [TPH1] | 2.15 ± 0.19 | 2.27 ± 0.35 | – | –
LPISTVREVALLRRLEAFEHPNVV [CDK4] | 2.62 ± 0.21 | 2.71 ± 0.45 | – | –
GKVKLQQNPGKFDELDMSPGDPKW [TBC1D10A] | 4.51 ± 0.32 | 4.83 ± 0.23 | – | –
DFGLAKEYIDPETKKHIPYREHKS [CSNK1G1] | 4.26 ± 0.34 | 4.34 ± 0.086 | – | –
